Assay: yeast display, Sf9 membrane polyspecificity reagent, FACS + sequencing; frameworks hold sequencing errors
How it was run: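 Synthetic nanobody libraries on Saccharomyces cerevisiae BJ5465 were galactose-induced for 36–48 hours, stained 1 hour at 4 °C with 10% biotinylated, detergent-solubilized Sf9 membrane reagent and enriched on streptavidin microbeads. FACS then separated cells into low and high (top ~1%) gates by anti-HA (expression) and streptavidin (reagent binding) fluorescence. Genes were colony-PCR amplified, MiSeq 2 × 250 sequenced and CDR-length filtered. A clone's polyreactivity label is that of its gate of origin.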

Row | Sequence | polyreactivity (PSR sort gate)
1 | QVQLVESGGGLVQAGGSLGLSCAASGLTFTHYTMGWYRQAPGKERELVAGISQTGGSTYYADSVKGRFTISRDNAKNTVYLQMNSLKPEDTAVYYCSRVFPRPRTGYYYWGQGTQVTVSS | high polyreactivity
2 | QVHIVESGGGLVQAGGSLRLSCAASGFTFFSNAMGWYRQAPGKQRELVASISASGSGTYYAVSVKGRFTISRDNAKNTFYLQMNSLKPDDTAVYYCSTRVGKILTTKYGYWGQGTQVSVSS | high polyreactivity
3 | QVQLVESGGRLVQAGGSLRLSCAASGSIFRSYAMGWYRQAPGKERELVATISSSTGSTYYADSVKGRFTISRDNAKNTVYLQRNSLKPEDTAVYYCNAQRRWSIYGYFYYWGQGTQVTVSS | high polyreactivity
4 | QVQLVESGGGLVQAGGSLRLSCAASGSIFVKYAMGWYRQAPGKERELVAAISRNGGSTYYADSVKGRFTISRDNAKNTVYLQMNSLKPEDTAVYYCNKVRPGWTYEYGYWGQGTQVTVSS | high polyreactivity
5 | QVQLVESGGGLVQAGGSLRLICAASGRTFRHNAMGWYRQAPGKERELVAAISSSGTNTHYADSVKGRFTISRDNAQNTVYLQMNSLKPEDTAVYYCAADRWGARRKQYHENGYWGQGTQVTVSS | high polyreactivity
6 | QVQLVESGGGLVQAGGSLRLRCAASGSIFWWYTMGWYRQAPGKERELVASISWSGTSTYYADSVKGRFTISRDNAKYTVYLQMNSLKPEDTALYYCNAVVYWPGTPYTHDDWGQGTQVTVSS | low polyreactivity
7 | QVQLVESGGGLVQAGGSLRLSCAASGFTFRRNGRGWYRPAPGKERELVAAIRGSDGSTYYADSVKGRFTISRDTAKNTVYLLMNSLKPADTAVYYCIVVGKGLYRKMGYWGQGTQVTVSS | high polyreactivity
8 | QVQLVESGGGLVQAGGSLRLSCAASGRIFKYYVMGWYRQAPGKERELVAGISSSGGSTYYADSVKGRFTISRDNAKNTVYLQMNSLKPEDTAVYYCAADYTFAYYNVKMDYWGQGTQVTVSS | low polyreactivity
9 | QVQLVESGGGLVQAGGSLRLSCAASGRIFYNYAMGWYRQAPGKERELVAAISGSGGSTYYADSVKGRFTISRDNAKNTVYLQMNSLTPEDTAVYYCSTSGPQYYSRNFDYWGQGTQVTVSS | low polyreactivity
10 | QGQLVESGGGLVQAGGRLSLSCAASGFTFDNYAMGWYSQAPGKERELVAAITSGGSTNYADSVKGRFTISRDNAKNTVYLQMNSLKPEDTAVYYCNVERSIQAQVNAEYYYWGQGTQVSVSS | low polyreactivity
11 | QVQLVESGGGLVQAGGSLRLSCAASGSIFWTNAMGWYRQAPGKERELVARITYSGGSTYSADSVKGRFTISRDNAKNTVYLQMNSLKPEDTAVYYCNARTHGWPYSRYYYWGQGTQVTVSS | high polyreactivity
12 | QVQLVESGGGLVHAGCSLRLSCAASGFFFDYNAMGWYRQAPGKERELVAAISISGGGTYYADSVKGRFTISRDNAKNTVYLQKNSLKPEDTAVYYCAAAGIGGGGWGQGTQVTVSS | low polyreactivity
13 | QVQLVESGGGLVQAGGSLRLSCADSGFTFGVYVMGWYRQAPAKERELVAAISRSGGSTYYADSVKGRFTISRDKAKNTVYLQMNCLKPEETAVYYCNADRLVSYRAGEYDYWGQGTQVTVSS | high polyreactivity
14 | QVQLVESGGGLVQAGGSLRLSCAASGNTFVGNAMGWYRQAPGKERELVAVITWSGGSTYYADSVKGRFTISRDNAKNTVYLQMNSLKPEDTAVYYCAARKFGTSVTHRGYWGQGTQVTVSS | low polyreactivity
15 | QVQLVESGGGLVQAGGSLRISCAASGSTFYLYDMGWYRQAPGKERELVANITSGTSTTYADSVKVRFTISRDNAKNTVYLQMNSLKPEDTAVYYCNATYTSPEYDYWGQGTQVTVSS | low polyreactivity
16 | QVQLVESGGGLFQAGGSLRLSCAASGFIFTRYAMGWYRQAPGKERELVAAISWSGGSTYYADSVKGRFTISRDNAKNTVYLQMNSLKPEDTAVYYCAADGSDSYDYWGQGTQVTVSS | low polyreactivity
17 | QVQLVESGGGLVQAGGSLRLSCAASGNTYIRNVMGCYRQAPGKERELVAGIRTGGSTFYADSVKGRFTISRDNAKNPVYLQMNSLKPEDTAVYYCAGYQLRLVYGYGYWGQGTQVTVSS | low polyreactivity
18 | QVQLVESGGGLVQAGGSLRLSCAASGNIFQKYAMGWYRQAPGKERELVAAIRRGDRTYADSVKGRFTISRDNAKNTVYLQMISLKPEDTAVYYCAAPQVWWGYYTRGVDYWGQGTQVTVSS | low polyreactivity
19 | QVQLVESGGGLVQAGGSLRLSCAASGFTFYYYAMGWYRQAPGKERELVAAINGGSSTNYADSVKGRFTISRDNAKNTVYLQMNSLKPDDTAVYYCAAETRFYRNIDKIYFVLDRVDYWGQGTQVTVSS | low polyreactivity
20 | QVQLVESGGGLVQAGGSLRLSCAASGITCTFNTMGWYRQAPGKERELVAGITNGGSTYYADSVKGRFTISRDNAKNTVYLQMNSLKPEDTAVYYCNAQRRLRYGWFGPYDYWGQGTQVTVSS | low polyreactivity
21 | QVQLVESGGGLVQAGGSLRLSCAASGRTFYYNAKGWYRQAPGKERELVARITSSGGSTYYADSVKGRFTISRDTSKNTVFLQMNSLKPEDTAVYYCAAGRSRYLWFGRDFDYWGQGTQVTVSS | low polyreactivity
22 | QVQLVESGGGLVQAGGSLRLSCAASGFIFSNNAMGWSRQAPGKERELVAAITSSGGRTYYADSVKGRFTISRDNAKNTVYLLMNSLKPEDTAVYYCAAARYDIMGYWGQGTQVTVSS | high polyreactivity

Row | Sequence | polyreactivity (PSR sort gate)
23 | QVQLVESGGGLVQAGGSLRLSCAASGSIFGDNAMGRYRQAPGKERELVAVISSSGSTYYADSVKGRFTISRDTAMNTVYLQMNSLKAEDTAVYYCNAYEFDWYEEYYYWGQGTQVTVSS | low polyreactivity
24 | QVQLVESGGGLVQAGGSLRLSCAASGSTFVIYAMGWYRQAPGKERELVATITSGGSTYYADSVKGRFTISRDNAKNTVYLQMNSLKPEDTAVYYCAADDWGWPFYYYDDPMDYWGQGTQVTVSS | high polyreactivity
25 | QVQLVETGGGLVQAGGSLRLSCDASGSTFVRYVMGWYRQAPGKERELVAAISRRGGSTYYADSVKGRFTISRANAKNTVYLQMNSLKPEDNAVYYCAGRGGRYFPYHGTIRYDYWGQCTQVTVSS | high polyreactivity
26 | QVQLVESGGGLVQAGGSLRLSCAASGRIFSFNGMGWYRQAPGKERELVAAITSSGGRTYYADSVKGRFTISRDNAKNTVYLQMNSLKPEDTAVYYCAAELAWEYYWGQGTQVTVSS | low polyreactivity
27 | QVQLVESGGGLVQAGGSLRLSCAASGRIFATNAMGWYRPAPGKERELVATITRSAGRTYYADSVKGRFTISRDNAKNTVYLQMNSLKPEDTAVYYCAASYWDTEPGYREYDYWGQGTQVTVSS | low polyreactivity
28 | QVQLVESGGGLVQAGGSLRLSCAASGFIFYRYAMGWYRPAPGKERELVAAISRSGGTTYYADSVKGRFTISRDNAKNTVYLQMNSLKPEETAVYYCAAVGTVSRTVGYKYWGQGTQVTVSS | high polyreactivity
29 | QVQLVESGGGLVQAGVSLRLSCAASGSTSSRNAMGRYRQAPGKEWELVAAITSGTRTYYADSVKGRFTISRDNAKNTVYLQMNSLKPEDTAVYYCARGRVSRYTNTDYDYWGQGTQVTVSS | high polyreactivity
30 | QVQLVESGGGLVQAGGSLRLSCAASGRIFYGNAMGWYRQAPGKERELVATISSSGGRTTYADSVKGRFTISRDNAKNTVYLQMNSLKPEDTAVYYCNARYRTRSLKYYYWGQGTQVTVSS | high polyreactivity
31 | QFQLVESGGGLVQAGGSLRLSCAASGRIFGVYARGWYRQAPGKERELVAAISSTGGSTYYADSVKGRFTISRDTAKNTVYLQMNSLKPEDTAVYYCEYDYWGQGTQVTVSS | low polyreactivity
32 | QVQLVESGGGLVQAGGSLRLSCAASGFTFPGNAMGWYRHPPGKERELVAAISSTDRTTNADSVKGRFTISRDNAKNTGYLQMNSLKPEDTAVYYCYTATRRRPRGYWGQGTQVTVSS | high polyreactivity
33 | QVQLVESGGGLVQAGGSLRLSCAASGRISVRNAMGWYRQAPGKERELVATIRSGGSTNYADSVKGRFTISRDNAKNTVYLQMYSLKPEDTAVYYCATAKLTWRSQGLDYWGQGTQVTVSS | low polyreactivity
34 | QVQLVESGGGLVQAGGSLRLSCAASGRIFDYYTMGWYRQAPGKERELVAAITWIGGSTYYADSVKGRFTISRDNAKNTVYLQMKSLKPEETAVYYCYAEGTALPYRADTVGGYYYWGQGTQVTVSS | low polyreactivity
35 | QVQLAESGGGLVQAGVSLRISCAASGSTFSVYAMGWYRQAPGKERELVATIRRGGSTYADSVKGRFTISRDNAKITVYLQMNRLKPEDTAVYYCASDAYVSYQPMDYWGQGTQVTVSS | high polyreactivity
36 | QVQLVESGGGLVQAGGSLRLSCAASGRTFYTVYAMGWYRQAPGKERELVAAITKDGTTTYYADSVKGRFTISRDNAKNTVYLQMNSLKPEDTAVYYCNADVCQPWGGGEYNYWGQGTQVTVSS | high polyreactivity
37 | QVQLVESGGGLVQAGGSLRLSCAASGSTFPYYARVWYRQEPGKETELVAAISSSGGSTYYADSVKGRFTISRDNAKNTVFLQMNSLKPEDPAVYYCAARRKFPYRHDYWGQGTLVTVSS | high polyreactivity
38 | QVQLVESGGGLVQAGGSLRLSCAASGFTFYKYAMGWYRQAPGKEREFVAAISSSGDSTYYADSVKGRFTISRDNAKNTVYLQMNSLKPEDTAVYYCAARRRGTSTTWGQGTQVTVSS | high polyreactivity
39 | QVQLVESGGGLVQAGGSLRLSCAASGFTFGYYTMGWYRQAPGKERELVASISRTGGRTYADSVKGRFTISRDNAKNTVYLQMNSLKPEDTAVYYCAAYRQGSAYDYWGQGTQVTVSS | high polyreactivity
40 | QVQLVESGGGLVQAGGSLRLSCAASGFTLAFYGMGWYRQAPGKERELVAAISWSGDSTYYADSVKGRFTISRDNAKNTVYLQMNSLKPEDTAVYYCAKPKRRFYDRPSDYWGQGTQVTVSS | high polyreactivity
41 | QVQHVESGGGLVQAGGSLRLSCAVSGRTFYYYAMGWYRQAPGKERELVAAISSSGGSTYYADSVKGRFTISRDNAKNTVYLQMNSLKPEDTAVYYCAAAARKVSVSRYLYYYWGQGTQVTVSS | high polyreactivity
42 | QVQLVESGGGLVQAGGSLRLSCAASGSTFWSYTMGWYRQAPWKERDLVARNTGRGGSTYYADSVKGRFTISRDNEKNTVYLLMNSLKTEDTAVYYCAAGGGRYGFYRFDYWRQGTQVTVSS | low polyreactivity
43 | QVQLVESGGGLVQAGGSLRLSCAASGRTFANYAMGWSRQAPGKERELVAAISSGGNTYYADSVKGRFTISRDNAKNTVYLQMNSLKPEDTSVYYCNADYLIKYDYWGKGTQVTVSS | high polyreactivity

From the nanobody polyreactivity screen of Harvey et al. (2022)
